Experimental data as given in patent US20110110962A1 (INSERM INSTITUT NATIONAL DE LA SANT ET DE LA RECHERCHE M …, published 2011).

What was measured:
TLR5 of mice (mouse) = TLR5 of mice (mouse) (UniProt Q9JLF7); experiment: cell-based or functional assay
TLR5 of mice = TLR5 of mice (mouse, UniProt Q9JLF7 27-859); experiment: cell-based or functional assay
TLR5 of mice, sequence (Q9JLF7 27-859): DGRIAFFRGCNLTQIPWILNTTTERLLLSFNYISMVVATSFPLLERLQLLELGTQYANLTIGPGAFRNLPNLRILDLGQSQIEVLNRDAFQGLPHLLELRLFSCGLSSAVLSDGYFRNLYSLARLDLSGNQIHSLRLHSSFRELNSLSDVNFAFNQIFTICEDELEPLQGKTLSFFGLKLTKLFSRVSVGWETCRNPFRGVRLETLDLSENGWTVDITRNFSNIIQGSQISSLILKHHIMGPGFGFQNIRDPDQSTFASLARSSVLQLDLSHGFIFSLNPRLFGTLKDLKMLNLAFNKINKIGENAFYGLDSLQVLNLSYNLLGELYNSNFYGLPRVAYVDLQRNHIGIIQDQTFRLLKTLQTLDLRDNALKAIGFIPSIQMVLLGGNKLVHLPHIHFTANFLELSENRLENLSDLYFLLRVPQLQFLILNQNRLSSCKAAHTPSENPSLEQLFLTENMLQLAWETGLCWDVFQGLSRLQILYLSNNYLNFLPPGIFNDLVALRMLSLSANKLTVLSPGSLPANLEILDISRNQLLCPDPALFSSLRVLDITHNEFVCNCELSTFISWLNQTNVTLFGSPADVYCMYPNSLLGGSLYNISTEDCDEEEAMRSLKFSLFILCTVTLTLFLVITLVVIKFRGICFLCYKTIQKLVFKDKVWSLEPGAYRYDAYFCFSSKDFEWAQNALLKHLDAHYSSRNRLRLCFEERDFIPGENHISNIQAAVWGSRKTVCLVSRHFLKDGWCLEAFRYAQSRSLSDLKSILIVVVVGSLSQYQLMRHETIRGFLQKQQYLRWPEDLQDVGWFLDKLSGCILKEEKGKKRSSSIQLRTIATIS

TLR5 of mice (mouse), sequence (Q9JLF7 27-859): as above

FliCΔ174-400 flagellin (from UniProt P06175 2-493) (ligand)
CCL20 mRNA pulmonary levels 2 h after i.n. instillation, against mock-treated animals (TLR5 of mice (mouse)): 30 fold
serum CCL20 after 10 µg i.v. (TLR5 of mice (mouse)): 0.85 ng/mL
systemic pro-inflammatory effects (serum CCL20 and CXCL2 after i.v. injection), against wild type FliC (TLR5 of mice (mouse)): 100 fold

B1: FliCΔ204-292 (ligand)
chain: AQVINTNSLSLLTQNNLNKSQSALGTAIERLSSGLRINSAKDDAAGQAIANRFTANIKGLTQASRNANDGISIAQTTEGALNEINNNLQRVRELAVQSANSTNSQSDLDSIQAEITQRLNEIDRVSGQTQFNGVKVLAQDNTLTIQVGANDGETIDIDLKQINSQTLGLDTLNVQQKYKVSDTAATVTGYADTTIALDNSTFKAALTAAGVTGTASVVKMSYTDNNGKTIDGGLAVKVGDDYYSATQNKDGSISINTTKYTADDGTSKTALNKLGGADGKTEVVSIGGKTYAASKAEGHNFKAQPDLAEAAATTTENPLQKIDAALAQVDTLRSDLGAVQNRFNSAITNLGNTVNNLTSARSRIEDSDYATEVSNMSRAQILQQAGTSVLAQANQVPQNVLSLLR
CCL20 mRNA pulmonary levels 2 h after i.n. instillation, against mock-treated animals (TLR5 of mice): ~30 fold

B2: Salmonella enterica Serovar Typhimurium ATCC14028 flagellin FliC (ligand)
chain: AQVINTNSLSLLTQNNLNKSQSALGTAIERLSSGLRINSAKDDAAGQAIANRFTANIKGLTQASRNANDGISIAQTTEGALNEINNNLQRVRELAVQSANSTNSQSDLDSIQAEITQRLNEIDRVSGQTQFNGVKVLAQDNTLTIQVGANDGETIDIDLKQINSQTLGLDTLNVQQKYKVSDTAATVTGYADTTIALDNSTFKASATGLGGTDQKIDGDLKFDDTTGKYYAKVTVTGGTGKDGYYEVSVDKTNGEVTLAGGATSPLTGGLPATATEDVKNVQVANADLTEAKAALTAAGVTGTASVVKMSYTDNNGKTIDGGLAVKVGDDYYSATQNKDGSISINTTKYTADDGTSKTALNKLGGADGKTEVVSIGGKTYAASKAEGHNFKAQPDLAEAAATTTENPLQKIDAALAQVDTLRSDLGAVQNRFNSAITNLGNTVNNLTSARSRIEDSDYATEVSNMSRAQILQQAGTSVLAQANQVPQNVLSLLR
CCL20 mRNA pulmonary levels 2 h after i.n. instillation, against mock-treated animals (TLR5 of mice): ~30 fold

B3: FliCΔ191-352 (ligand)
chain: AQVINTNSLSLLTQNNLNKSQSALGTAIERLSSGLRINSAKDDAAGQAIANRFTANIKGLTQASRNANDGISIAQTTEGALNEINNNLQRVRELAVQSANSTNSQSDLDSIQAEITQRLNEIDRVSGQTQFNGVKVLAQDNTLTIQVGANDGETIDIDLKQINSQTLGLDTLNVQQKYKVSDTAATVTGYLELEDGTSKTALNKLGGADGKTEVVSIGGKTYAASKAEGHNFKAQPDLAEAAATTTENPLQKIDAALAQVDTLRSDLGAVQNRFNSAITNLGNTVNNLTSARSRIEDSDYATEVSNMSRAQILQQAGTSVLAQANQVPQSVLSLLR
CCL20 mRNA pulmonary levels 2 h after i.n. instillation, against mock-treated animals (TLR5 of mice): ~30 fold
